Sequences and labels used below:
B1: F-15-P; numbered along this chain (parent)
chain: EASNCFAIRHFENKFAVETLICFNLFLNSQEKHY

± gives the uncertainty stated by the source.

This data set covers variants of B1. Kind of data set: amyloid nucleation score relative to WT ADan (yeast Sup35 reporter selection) (log enrichment difference); higher = more amyloid nucleation. On the procedure:
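Deep mutational scan of the ADan peptide fused to the Sup35 nucleation domain (SupN) in S. cerevisiae [psi-pin-], covering all single amino-acid substitutions and stop truncations (truncations = sequence up to the stop). After 24 h Cu2+ induction, cells were selected on -ADE-URA plates for 7 d at 30 °C. The nucleation score is log enrichment (output/input, deep sequencing) minus that of WT ADan, as the error-weighted mean of 3 biological replicates (DiMSum).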
Regarding EASNCFAIRHFENKPAVETLICFNLFLNSQEKHY [F15P], the amyloid nucleation score is 0.782 ± 0.18.
Under EASNCFAIRHFENKMAVETLICFNLFLNSQEKHY [F15M] stands 0.405 ± 0.14.
For EASNCFAIRHFENKSAVETLICFNLFLNSQEKHY [F15S], the amyloid nucleation score is -0.453 ± 0.099.
Under EASNCFAIRHFENKEAVETLICFNLFLNSQEKHY [F15E] stands -2.18 ± 0.19.
Under EASNCFAIRHFENKQAVETLICFNLFLNSQEKHY [F15Q] stands -0.502 ± 0.18; under EASNCFAIRHFENKDAVETLICFNLFLNSQEKHY [F15D], -2.5 ± 0.25; under EASNCFAIRHFENKCAVETLICFNLFLNSQEKHY [F15C], -0.147 ± 0.14.
Consider EASNCFAIRHFENKHAVETLICFNLFLNSQEKHY [F15H], for which the amyloid nucleation score is -2.51 ± 0.26.
Under EASNCFAIRHFENKGAVETLICFNLFLNSQEKHY [F15G] stands 0.818 ± 0.089; under EASNCFAIRHFENKKAVETLICFNLFLNSQEKHY [F15K], -1.37 ± 0.17; under EASNCFAIRHFENKYAVETLICFNLFLNSQEKHY [F15Y], 0.0276 ± 0.12.
As to EASNCFAIRHFENKNAVETLICFNLFLNSQEKHY [F15N], the amyloid nucleation score was -0.337 ± 0.14.
Under EASNCFAIRHFENKAAVETLICFNLFLNSQEKHY [F15A] stands 0.534 ± 0.14; under EASNCFAIRHFENKLAVETLICFNLFLNSQEKHY [F15L], -0.25 ± 0.085.
Turning to EASNCFAIRHFENKVAVETLICFNLFLNSQEKHY [F15V], the amyloid nucleation score was 0.0927 ± 0.095.
In the case of EASNCFAIRHFENKIAVETLICFNLFLNSQEKHY [F15I], the amyloid nucleation score turned out to be 0.203 ± 0.13.
EASNCFAIRHFENKWAVETLICFNLFLNSQEKHY [F15W]: the amyloid nucleation score is -1.15 ± 0.19.
As for EASNCFAIRHFENKTAVETLICFNLFLNSQEKHY [F15T], the figure is -0.00209 ± 0.12; as for EASNCFAIRHFENKRAVETLICFNLFLNSQEKHY [F15R], -2.18 ± 0.14; as for EASNCFAIRHFSNKFAVETLICFNLFLNSQEKHY [E12S], -0.259 ± 0.092.
Under EASNCFAIRHFTNKFAVETLICFNLFLNSQEKHY [E12T] stands -0.329 ± 0.15; under EASNCFAIRHFKNKFAVETLICFNLFLNSQEKHY [E12K], -0.108 ± 0.15; under EASNCFAIRHFVNKFAVETLICFNLFLNSQEKHY [E12V], -2.02 ± 0.12.
For EASNCFAIRHFANKFAVETLICFNLFLNSQEKHY [E12A], the amyloid nucleation score is -0.733 ± 0.12.
As for EASNCFAIRHFYNKFAVETLICFNLFLNSQEKHY [E12Y], the figure is -0.651 ± 0.15; as for EASNCFAIRHFCNKFAVETLICFNLFLNSQEKHY [E12C], -0.751 ± 0.14.
For EASNCFAIRHFINKFAVETLICFNLFLNSQEKHY [E12I], the amyloid nucleation score is -3.73 ± 0.52.
As for EASNCFAIRHFHNKFAVETLICFNLFLNSQEKHY [E12H], the figure is 0.13 ± 0.16; as for EASNCFAIRHFNNKFAVETLICFNLFLNSQEKHY [E12N], -0.269 ± 0.14; as for EASNCFAIRHFMNKFAVETLICFNLFLNSQEKHY [E12M], -1.67 ± 0.21.
Under EASNCFAIRHFDNKFAVETLICFNLFLNSQEKHY [E12D] stands 0.334 ± 0.13; under EASNCFAIRHFWNKFAVETLICFNLFLNSQEKHY [E12W], -2.66 ± 0.22.
With EASNCFAIRHFRNKFAVETLICFNLFLNSQEKHY [E12R], the amyloid nucleation score is -0.892 ± 0.097.
In the case of EASNCFAIRHFLNKFAVETLICFNLFLNSQEKHY [E12L], the amyloid nucleation score was -2.5 ± 0.15.
EASNCFAIRHFFNKFAVETLICFNLFLNSQEKHY [E12F]: the amyloid nucleation score is -2.21 ± 0.2.
On to EASNCFAIRHFPNKFAVETLICFNLFLNSQEKHY [E12P], for which the amyloid nucleation score is 0.357 ± 0.16.
Consider EASNCFAIRHFGNKFAVETLICFNLFLNSQEKHY [E12G], for which the amyloid nucleation score was -0.627 ± 0.087.
In the case of EASNCFAIRHFQNKFAVETLICFNLFLNSQEKHY [E12Q], the amyloid nucleation score was -0.321 ± 0.18.
Under EASNCFAIRIFENKFAVETLICFNLFLNSQEKHY [H10I] stands 0.111 ± 0.16.
Turning to EASNCFAIRNFENKFAVETLICFNLFLNSQEKHY [H10N], the amyloid nucleation score was -0.16 ± 0.17.
As for EASNCFAIRGFENKFAVETLICFNLFLNSQEKHY [H10G], the figure is 0.122 ± 0.1; as for EASNCFAIRVFENKFAVETLICFNLFLNSQEKHY [H10V], 0.0906 ± 0.11.
As to EASNCFAIRLFENKFAVETLICFNLFLNSQEKHY [H10L], the amyloid nucleation score was -0.281 ± 0.1.
As to EASNCFAIRTFENKFAVETLICFNLFLNSQEKHY [H10T], the amyloid nucleation score was determined as 0.0221 ± 0.14.
For EASNCFAIRSFENKFAVETLICFNLFLNSQEKHY [H10S], the amyloid nucleation score was -0.245 ± 0.1.
As for EASNCFAIRWFENKFAVETLICFNLFLNSQEKHY [H10W], the figure is -0.926 ± 0.16.
As for EASNCFAIRYFENKFAVETLICFNLFLNSQEKHY [H10Y], the figure is -0.291 ± 0.15; as for EASNCFAIRCFENKFAVETLICFNLFLNSQEKHY [H10C], 0.429 ± 0.15.
As for EASNCFAIRQFENKFAVETLICFNLFLNSQEKHY [H10Q], the figure is 0.00592 ± 0.19.
On to EASNCFAIRDFENKFAVETLICFNLFLNSQEKHY [H10D], for which the amyloid nucleation score is 0.76 ± 0.16.
EASNCFAIRFFENKFAVETLICFNLFLNSQEKHY [H10F]: the amyloid nucleation score is -0.478 ± 0.15.
For EASNCFAIRKFENKFAVETLICFNLFLNSQEKHY [H10K], the amyloid nucleation score stood at 0.566 ± 0.18.
Under EASNCFAIRAFENKFAVETLICFNLFLNSQEKHY [H10A] stands 0.402 ± 0.14; under EASNCFAIRRFENKFAVETLICFNLFLNSQEKHY [H10R], 0.227 ± 0.1.
For the variant EASNCFAIREFENKFAVETLICFNLFLNSQEKHY [H10E], the amyloid nucleation score was found to be 0.551 ± 0.18.
As for EASNCFAIRPFENKFAVETLICFNLFLNSQEKHY [H10P], the figure is 0.798 ± 0.18.
As for EASNCFAIRMFENKFAVETLICFNLFLNSQEKHY [H10M], the figure is -0.511 ± 0.18; as for EASNCFAIKHFENKFAVETLICFNLFLNSQEKHY [R9K], -0.189 ± 0.19.
Take EASNCFAINHFENKFAVETLICFNLFLNSQEKHY [R9N]: the amyloid nucleation score amounted to 0.528 ± 0.27.
In the case of EASNCFAIQHFENKFAVETLICFNLFLNSQEKHY [R9Q], the amyloid nucleation score was 0.474 ± 0.17.
Turning to EASNCFAIIHFENKFAVETLICFNLFLNSQEKHY [R9I], the amyloid nucleation score was -0.484 ± 0.22.
EASNCFAIAHFENKFAVETLICFNLFLNSQEKHY [R9A]: the amyloid nucleation score came to 0.274 ± 0.14.
Under EASNCFAISHFENKFAVETLICFNLFLNSQEKHY [R9S] stands 0.143 ± 0.12; under EASNCFAIVHFENKFAVETLICFNLFLNSQEKHY [R9V], -0.535 ± 0.12; under EASNCFAIDHFENKFAVETLICFNLFLNSQEKHY [R9D], 0.286 ± 0.17.
Under EASNCFAIHHFENKFAVETLICFNLFLNSQEKHY [R9H] stands -0.0444 ± 0.26.
With EASNCFAIWHFENKFAVETLICFNLFLNSQEKHY [R9W], the amyloid nucleation score is -0.819 ± 0.14.
As for EASNCFAITHFENKFAVETLICFNLFLNSQEKHY [R9T], the figure is 0.386 ± 0.17; as for EASNCFAILHFENKFAVETLICFNLFLNSQEKHY [R9L], -0.614 ± 0.12.
Under EASNCFAIEHFENKFAVETLICFNLFLNSQEKHY [R9E] stands -0.741 ± 0.17; under EASNCFAIMHFENKFAVETLICFNLFLNSQEKHY [R9M], 0.735 ± 0.17.

The record behind these values is the supplement of paper PMC12067230.
